Several values for one entry are separate records, joined by “and”; a condition that tells them apart may be missing. Equal entries are not always repeated.
Experiments:
[1] = target: amyloid precursor protein C99 (UniProt P05067); assay: SDS-PAGE with Western blot (SDS-stable oligomers); whole-cell expression samples of E. coli (0.8 OD600, autoinduction or IPTG), heated 4 min at 90°C in SDS dye, 4-20% gel, detected with antibody 6E10
[2] = target: amyloid precursor protein C99 (UniProt P05067); assay: SDS-PAGE with Western blot (SDS-stable oligomers); SEC fractions of Ni-purified C99 in E. coli lipid pentyl-inulin nanodiscs (detergent-free), heated in SDS dye, 4-20% gel, detected with antibody 6E10

amyloid precursor protein C99 (from UniProt P05067 672-770) (domain or fragment)
stoichiometry N [1]: 2 and 3
stoichiometry N [2]: 3

Reference: article PMC12363408
